Measured values reported in a protein production outcome set (Wang et al. 2014).

Assay: label from the status in PepcDB records

With “MLIINKLNHAQKQLEKLNFIPQQADKVDFLASSSEFKARILQLINTAKSRIYLTALYFEQDEAGQQILAALYQAKLANPALDIQILVDWHRAQRGRIGEKTTSSNADWYANMKQQYNLPPEQEIAVWGVPINGREIFGVLHLKGFIFDDTILYSGASINNVYLQQFDRYRYDRYHTLENKVLADSLVTFLQQHILTDHAVNRLDNMQRPVTANIRPAIKAFRKQLTKQQYQFAEQPESNGLMLSPIAGLGRKNQLNKTIEALFYKTQNKLTICTPYFNFPRSLITRIKWLLENGKQVEIIAGDKKANDFYTPPDKKFTMAAALPYLYEKNLRAFAKRFDSYIQNKLLTIRLWKDGENTYHLKGLWVDNRYILLTGNNLNPRAWGLDAENGILLDDPKAELAEKAALELTQIRTFTQELSHYSDLETIKDYPLEVQKLLKKFGRVKLDKIIKMLLLEHHHHHH” as the sequence, how does the protein production read?
The protein production was “failed”.

For “MLIITYISACILFLVSFSHVYWAFGGNWGTNSVIPTKAGEKAFTPRAGMTLVIALLLSMAAIILLQQANIVHFAVPNVIIQVGSWICMIVFSIRVIGEFNYFGIFKRQKDTHFARMDTGLYIPLCAFLSLSFLLAIIL”, which protein production is on record?
Its protein production is “failed”.

With “MLILVILLVLVALAFDFINGFHDAANSIATVVSTRVLSPLVAVGWAAFFNFISAMPVLWGAELKVAATMGKGIVHFEQLKAGGISLVLMVVFAALMGAIVWNLLTWWWGLPSSSSHALAGGMIGASLPPLGFAGLIPSGILKIAAFIVLSPLIGMVLGSAMMVATAWVVRKNTPARVDRWFRRLQLVSAAIFSYSHGTNDAQKVMGIISVILYGTIWADRAAMTPGHFPVPFWVVLSCHAAIGLGTMFGGWRIVRTMGHNLTKLQPIGGFCAETGGGVTILALAHFGIPVSTTHTITGAIVGVGSTKGTRAVRWGVAGRIIWAWIFTIPAAAIVAGVIFLVTRAIVSVIGVG” as the sequence, how does the protein production read?
Its protein production is “failed”.

For “MLINKTKRAEQNLNNLPFLALQAEQIEFLGSSAEFKTQIIELIRNAKKRIYVTALYWQKDEAGQEILDEIYRVKQENPHLDVKVLIDWHRAQRNLLGAEKSATNADWYCEQRQTYQLPDDPNMFFGVPINTREVFGVLHVKGFVFDDTVLYSGASINNVYLHQFEKYRYDRYQKITHAELADSMVNFINDYLLDFSAVYPLDVTNRPRTKEIRGNIRAYRKDLAQNGEYSLKSAVKLPNVLSVSPLFGLGASGNELNQVIEDLFLQVQKKLVICTPYFNFPRTLQHKIATLLENGKRVEIIVGDKVANDFYIPPEQPFKMAGALPYLYESNLRRFCEKFETQIESGQLVVRLWRDGDNTYHLKGVWVDDRYILLTGNNLNPRAWRLDAENGLLIYDPQQQLLAQVEKEQNQIRQHTKVLKHYTELEELNQYPEPVQKLLKKFARIKADKLVKMIL”, which protein production is on record?
The protein production was “not failed”.

Which protein production does the source give for “MLIPSKLHFPRRLHNAILRQRVLDTLENAMHYKLVLFRSPAGYGKTTMAAQWLSDKDATGWYSLDESDNDEYKFAKYFVQTISNATHTELSHSKALTEKRQFASLSSLFSQVFTELISFQDEAYIVLDDYHLITNDTIHLGLKFFLKHLPDNLTLVITSRSQPPLNTANLRVRDLLIEIDNQSLAFDQSETSLFFNQRLNENIDQEAITHVREHVEGWPSALQLIALHSIQNNQSLNNSAQVMAQLNHAHLWDYLAEEVFDHLDQETQQFLMRCAVFDHFNTTLLSKVTQRKDAQLLIENLNRFGLFINTNGEQGDWYKFHNLFAEFLTHQRQNHLAHEEIDLQKYAAEAWLEHDNIYQALRHAKNAKDDILIANILTQHGWHLFNNGELSLLETTISDLRPEVLFTSPRLVIIRAWLAQSQHNYLQVNDLLSEAQREMADRNIVLDRHMQGEIDALRAQVAINKNEPEAALAFAEKALEELETNKYRSRIVATSVIGEYHHVSGNLAQALALMQQTEKMAMTYGIYHQALWAILQQSEILMAQGFMQAAFDLQDNGFKLIEDQDLHQLPLHEFLLRSRAQIYWFWFRFDEAEQCTWKGLDVLSPFDETKHLRGYSMLARLAVARGELDKAERYLDKCQQLLGQSDYHIDWKANASSAQLFYWQAKNNSEAIQYWLAQAERPETRCNHFTQLQWRNIARAQFHLGDIDTAIETLQTSQTIAQQHKLITDINRNAILAAILLYENKQIDEAVEAMHLAIKQSNQTGIIGSFLMAGRNVLKPLGKLQQKGNVTELEKHRIEQLQKALSNNERSRSAHFDETFIEKVLNTPEVPELIRTSPLTHREWQVLGLIYSGFSNEQIAAEFDVAPTTIKTHIRNLYQKLNLPNRKAAIAMADELVGMMK” here?
Its protein production is “failed”.

With “MLIRPTLEPDITWLPDVERSAAQAFVSWPALAWLAQGDVMDCAAHRAFVEAGGSWVAQDATGRIVGFACARLADQALHLHEISVRQEAQGQGVGRRLLQQVVDAGRCAGVRELTLTTFVDVPWNAPFYARFGFEMLQESRLCERLRGILASEHAHGLLGRCAMRLNVGL” as the sequence, how does the protein production read?
Its protein production is “failed”.

Which protein production does the source give for “MLIVIGYAVVILAVVGSFIGLGGHLGALYQPFELTLIAGAAVGAFMAGNSRKSLGLVAKAIPEAFRSSPYSKDVYMELMALLYVLLNKARREGLMAIESHIEDPLSSPIFNEYPRIMKDAKLMEFITDYLRIMISGNMSSFEIETLMDEEIETYRHEREVPTHALQQVADALPAFGIVAAVLGVIKALAAVDQPPAILGDLISKAMVGTFLGVLLAYGFVAPMAARIERRTSESVKVLECIKVTLLASMNGYPPQLAVEFGRKVLFSAVRPSFGELEEHVRQAKSAATGRA” here?
Its protein production is “failed”.

With “MLIWWRGKFRRADEISLDFSLFEKSLQGAVYETLRTYSRAPFAAYKHYTRLKRSADFFNLPLSLSFDEFTKVLKAGADEFKQEVRIKVYLFPDSGEVLFVFSPLNIPDLETGVEVKISNVRRIPDLSTPPALKITGRTDIVLARREIVDCYDVILLGLNGQVCEGSFSNVFLVKEGKLITPSLDSGILDGITRENVIKLAKSLEIPVEERVVWVWELFEADEMFLTHTSAGVVPVRRLNEHSFFEEEPGPVTATLMENFEPFVLNLEENWVGI” as the sequence, how does the protein production read?
Its protein production is “not failed”.

For “MLIYGLARLLLFVVLTLIIHSLALLISAPVPLVMSAMLALIVAFPLSMLVFSKLRMNATQAVSQWDAQRKAHKEWVRSELADR”, which protein production is on record?
Its protein production is “failed”.

For “MLKEILSSALLMLIMIDPSDKILLVSLLREDFHIEDVKSLIIRANLIGFILLLLFAVAGKIILQDIFHIELDALRVAGGFVLFKIGLEALEGGGMVTIKREKNILALAAVPVATPLIAGPAAITAAITLTAEHGIIVSIVGTLIAIAITAALMMIALYLMRGISKTALSVTIRIIGLFIMAIGAQMMITGAGGIVLNLIKGA”, which protein production is on record?
The protein production was “failed”.

For “MLKILVRLYLVIIVAYAGALLFIPDTIVGLFRDRFMAYNLDQAKGVQALIVRQFRQAPREQWPAVEQELASDFAPLELQLLRRDQAGLSDEEQARLEQGLYAVRIAEWGYYETVLAPLDKEWLIRLHSPPDPLDINVLSWGVTVLIGAAMLGCLLLWVWPHWRDLERLKETARRLGQGQMAERTHISPHSNIGELAGVFDTMASDLERHVNQQRELLNAVSHELRTPLTRLDFGLVLLFDEVPPASRKRLLELVGHVRELDELVLELLSYSRLYNADQARERVEVSLLELVDSVLGGFAEELDGRGIQWEVRAEGELPRFVLDPRLTARAVQNLVRNAMRYCDESLLLRLRLEADGACLLTVEDDGIGVPVEERERVFQPFYRLDRSRDRNTGGFGLGLAISRRAIEGQGGTLTLAQSALGGAQFRIRLPAGG”, which protein production is on record?
The protein production was “failed”.

With “MLKKGNEMKAVIVYASVHHGNTKKIEEAMASVISADVIDVTRKIKPDLSGYDVIGFVSGVYFHTFHEGIKKCIEENMSSKGQKVFLVATCGLGYRDYTKGMKDTLAKKDVLCMGSFQCRGWDTYGIFGKIGGIAKKHPNDRDLKEAQEFVLKTVCKTNNLEHHHHHH” as the sequence, how does the protein production read?
The protein production was “failed”.

With “MLKKMSPSDWRPFYVSIARNMTNGIRGSIGGRLASWACLFQVTCGVAMKMPTLLSVSLLAALSLPAAAQTAPPQDVPFDGTLKIDVDATDLAHRIFKVNITMPAKPGPMTLLYPQWIPGDHSPTGPIDKLAGLVIKVDGKVVPWKRDQFDVYAFKVDVPQGATELTAEFKFLSPQAGNQGRVMMTPEMLNLQWNTTALYPAGYVVRNIKVQASVTLPAGWSYATALETDRRVGDTVSFKPIDFDDLVDSPMFAGKYYKRVELSTGKQPVYLNVFADEAKSLEAKPEQIKAHAALVQQMDKLYGARHFDHYEFLLALTKKLGGIGLEHHRSSENSGPPNYFTEWDKSWTMRDLLAHEFNHSWNGKYRRGADLSTPNFNVPMGDSLLWLYEGQTQFWGEVLAARSGLWTQDQARDMLAGVAATYERGRPGMTWRTLQDTTNDPTMSMRRSKPYRSYQMSEDYYSGAQMMWLEVDSKLRALTNNKRSIDDFAKAFFGMKNGDWDVNPYTFDDIVSTLNGVAAYDWASLLRERMDGHGSLNGGIEANGWKLVYNDEPNLAIKTYESNKNDVSLTYSLGLSLEGSGEVSEVLWDSPAFNAGIINGNSIVAVNGRAFSADVIKDAIKAAKGTAAPIELLVKRGDRYETVRIDYHGGLLYPHLERIAGKPDRLGELYKAR” as the sequence, how does the protein production read?
Its protein production is “failed”.

For “MLKKYIPLVARSFLAVIFIYAGVNKVFNFAQTSESMAKAGLPIVGVLLIFTIAFQILGGLSIILGYKAEIGAILLIIFLIPATIVFHNPFADPSQFNNFFKNLSIIGGLLLILAYGSGTLSLEASDRSSYVSQPEE”, which protein production is on record?
The protein production was “failed”.

For “MLKLLWIALGGSLGALCRYGLSVLARWGLPPTVPWGTLAANLVGCFLIGGLWVLAAQYSFSEELRVFIFTGGIGSLTTFSTYSLESLLLLREGRVWAGLANVLVSNVLGLVLVAIGAGCALFLLGGPVAAFGA”, which protein production is on record?
The protein production was “failed”.

For “MLKMKNNGGGCLAYISDCSVYLPVWKLKRDEISKETGMPSMGGERAVAHWDEDSITMAVEAARKFDGAFDAVIFASSSPPFRIKQCASFIASALDLPDSTFTMDITDTMRAATDALITANEFVDSGRFSRVLVVAGDKIPTKPGTLYEQLYGDAAAAVVVEKEGGAKILGYSTSTKPLPGSWMLADDDTVRDYDMRVDARYGYAASVQKAAMPLFAKLGLSPADIDRIVASAPDPKSYQGLLKAVGARPEEFYFDSVGIAGSAHPLLLLATQLEREGRILLGGYGEGADVIAVEIEQAMDSNMGRMLESRKEISYGDYLFNRGFVGVRDAPDRPSLTKFWRDEKSIIRFYGMKCKSCGTVSYPISRCCIECGAKDNYEEVRLGERGKIYTFTIDYLVMPGNYAGDGVHPHFIAVVDLDGGGRVLFELTDTLRDFSGVECDAEVERTFRLLFEKNRFRYYGWKARLPRLEHHHHHH”, which protein production is on record?
Its protein production is “not failed”.

With “MLKNFNGRPSLATVLKASTVAGIAAAVLATGVPLEITRSYAEAVKVQAPAVPSFANVVDAVSPAVVSVRVENRVNPVSDNNNDGFSFDFNGRGFDDLPDDHPLKRFFKQFGQDPNDQQGHSRRFGQNGPNGGPNGPGGKGRLRPVAQGSGFFISEDGYIVTNNHVVSDGQAFVAVMNDGTELDAKLIGKDPRTDLAVLKVDGKGKKFTYVNWADDNNVRVGDWVVAVGNPFGLGGTVTAGIVSARGRDIGSGPYDDYLQVDAAVNRGNSGGPTFNLSGEVVGINTAIFSPSGGSVGIAFAIPASTARDVVADLMKDGQVSRGWLGVQIQPVTKDIAESIGLSEPSGALVVAPQAGSPGDKAGMKAGDVVTALNGETIKDARDLSRRIGAMQPGSKVELSVWRAGKAQPLTVELGTLPIDQKDASADDNSQPQQPEAPASEKALADLGLTVGPSDDGKGLAITGIDPDSDAADKGIKEGEKITSVNNQEVASPEDVVKVLNQAKKDGRTRALFQIQSNEGSRFVALPINGQG” as the sequence, how does the protein production read?
Its protein production is “failed”.

With “MLKNIFKISNIPAVLWGDKSEKIFIAVHGNMSNKEDAVIQIVAEEADRKGYQVLSFDLPEHGERKNDNTPCKVQFCVNELSIIMNYAKEHWKEINVFACSMGAYFSLLAFQNDVIEKALFLSPVVNMERIIENMMKWFNVTPELLQKEMTIETPIGQKLYWDYLCYVKEHPISTWNTDTYIMYGAKDELCEFETINYFTKKHRCELEVMETGEHYLHTEEQLKIFEQWLHKHID” as the sequence, how does the protein production read?
The protein production was “failed”.

For “MLKQRIITALILLPIALCGFFLLEGSGFALFIGLVVSLGAWEWARLAGFEAQPARVAFAVVVAALLFLMHLVPGVAPWVLGAAVLWWALATYLVLTYPRSSEQWSGAAPKLLIGLLILLPAWQGLVFIKQLPLGNWLIMAVMVLVWGADIGAYFSGKAFGKRKLAPQVSPGKSWEGVYGGLALSLVITAVVGLVRDWTLGQMILGLLGAAIVVFISVVGDLTESMFKRQSGIKDSSNLLPGHGGVLDRIDSLTAAIPVFAVLLWMAAL”, which protein production is on record?
The protein production was “failed”.
